Here are results for two substances from publication PMC10263302.

For this assay, the target named is Complex IV (cytochrome c oxidase complex) of T. gondii (Toxoplasma gondii | Toxoplasma gondii (endogenous in the parasites)). Kind of assay: native gel or EMSA.

With cFLAG-TgApiCox13^H85Q (natural protein), the reduction of the abundance of the complex against the cWT-containing complex (no ATc) came out at 45%.

In turn, cFLAG-TgApiCox13^H49Q (natural protein) showed a reduction of the abundance of the complex against the cWT-containing complex (no ATc) of 75%.
